# Values quoted from earlier work in PMC4336166.
# pKd: −log10 of the molar value.
# Target: clathrin coat (Homo sapiens) (UniProt Q00610)
# Chain of UniProt Q00610 (Q00610 2-1675): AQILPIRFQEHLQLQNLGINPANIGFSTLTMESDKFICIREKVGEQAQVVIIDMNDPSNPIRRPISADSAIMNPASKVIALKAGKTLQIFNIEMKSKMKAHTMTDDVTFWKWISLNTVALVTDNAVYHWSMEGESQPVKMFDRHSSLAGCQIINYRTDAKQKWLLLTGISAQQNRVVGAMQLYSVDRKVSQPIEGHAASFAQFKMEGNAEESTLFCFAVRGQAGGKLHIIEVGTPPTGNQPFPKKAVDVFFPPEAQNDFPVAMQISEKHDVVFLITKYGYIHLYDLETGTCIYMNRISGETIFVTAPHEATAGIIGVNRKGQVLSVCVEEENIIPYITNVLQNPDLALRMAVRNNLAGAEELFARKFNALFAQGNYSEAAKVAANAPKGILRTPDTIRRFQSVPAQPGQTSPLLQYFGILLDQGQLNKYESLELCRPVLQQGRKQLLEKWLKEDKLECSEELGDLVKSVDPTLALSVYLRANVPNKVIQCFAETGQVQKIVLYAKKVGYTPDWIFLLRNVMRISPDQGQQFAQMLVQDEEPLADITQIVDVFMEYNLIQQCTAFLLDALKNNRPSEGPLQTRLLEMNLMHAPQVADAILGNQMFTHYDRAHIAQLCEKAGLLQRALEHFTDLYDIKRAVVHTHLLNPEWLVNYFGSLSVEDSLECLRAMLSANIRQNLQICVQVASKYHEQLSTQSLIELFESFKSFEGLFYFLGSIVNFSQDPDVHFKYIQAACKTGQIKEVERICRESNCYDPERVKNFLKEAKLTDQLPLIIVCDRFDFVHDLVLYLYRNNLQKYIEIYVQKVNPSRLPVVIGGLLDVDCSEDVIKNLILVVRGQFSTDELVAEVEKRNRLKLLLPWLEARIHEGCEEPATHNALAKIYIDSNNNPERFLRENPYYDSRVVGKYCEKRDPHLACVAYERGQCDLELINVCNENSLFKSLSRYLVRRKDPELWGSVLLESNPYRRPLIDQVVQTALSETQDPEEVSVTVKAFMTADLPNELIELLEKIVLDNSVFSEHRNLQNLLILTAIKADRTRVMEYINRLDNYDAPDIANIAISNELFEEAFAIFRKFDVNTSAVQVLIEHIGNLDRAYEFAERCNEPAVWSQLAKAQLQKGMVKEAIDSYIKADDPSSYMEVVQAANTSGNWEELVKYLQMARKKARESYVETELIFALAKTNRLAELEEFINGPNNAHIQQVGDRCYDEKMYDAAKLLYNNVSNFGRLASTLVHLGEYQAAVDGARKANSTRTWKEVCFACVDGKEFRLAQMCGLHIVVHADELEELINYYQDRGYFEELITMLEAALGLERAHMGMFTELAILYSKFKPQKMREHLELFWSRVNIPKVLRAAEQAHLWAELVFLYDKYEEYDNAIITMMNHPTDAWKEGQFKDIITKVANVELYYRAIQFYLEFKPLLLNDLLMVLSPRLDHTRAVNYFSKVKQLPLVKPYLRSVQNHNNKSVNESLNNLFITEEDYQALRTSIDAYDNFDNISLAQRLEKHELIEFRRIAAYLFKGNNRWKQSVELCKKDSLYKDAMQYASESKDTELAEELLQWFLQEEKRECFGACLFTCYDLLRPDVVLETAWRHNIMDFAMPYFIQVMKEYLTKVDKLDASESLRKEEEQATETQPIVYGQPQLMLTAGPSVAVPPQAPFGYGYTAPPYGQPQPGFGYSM
substance,measurement,value
epsin CLAP domain (from UniProt Q9Y6I3),pKd,3.91
